Source: patent US20220259315A1

How the values were obtained:
[1] = target: human PD-1 (cell surface) (human) (UniProt Q15116)
[2] = target: human PD-1 (cell surface) (human) (UniProt Q15116); assay: column 'Affinity (nM)'; per the footnote of Table 2, FACS staining of cell surface PD-1 on activated CD4 T cells
[3] = target: human PD-1 (cell surface) (human) (UniProt Q15116); assay: column 'Affinity (nM)'; per the footnote of Table 2, FACS staining of cell surface PD-1 on activated CD4 T cells (Table 5 prints 0.6 for MK3575)

human PD-1 (cell surface) (human), sequence (Q15116 25-288 limits assumed): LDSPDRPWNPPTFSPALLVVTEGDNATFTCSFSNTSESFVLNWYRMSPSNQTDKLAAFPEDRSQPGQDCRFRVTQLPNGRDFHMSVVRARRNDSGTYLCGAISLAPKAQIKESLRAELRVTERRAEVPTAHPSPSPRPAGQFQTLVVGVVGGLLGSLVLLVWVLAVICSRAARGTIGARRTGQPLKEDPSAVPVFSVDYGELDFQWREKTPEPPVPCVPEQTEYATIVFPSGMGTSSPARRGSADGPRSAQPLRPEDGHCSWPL

Row | Substance | EFRA, column 'Functional effect: % CFSE low CD8 T cells' [1] | Affinity [2] | Affinity [3]
1 | IgG1 control (antibody) | 100% | – | –
2 | BMS-5C4 (antibody) | 175% | 0.6 nM | –
3 | MK-3475 (pembrolizumab) (antibody) | – | – | 0.5 nM
